In patent US20220259593A1, “CONTROL OF MAMMALIAN GENE DOSAGE USING CRISPR” (The Regents of the University of California, priority 2019, published 2022) one finds Mean relative activity data, which are given here for 39 molecules.

To fix the notation:
B1: cr443 (nucleic acid)
guide: GTTTAAGAGCTAAGCGGGAAACAGCATAGCAAGTTTAAATAAGGCTAGTCCGTTATCAACTTGAAAAAGTGGCACCGAGTCGGTGCT
modifications: listed as DNA, chemistry not fully specified
B2: cr539 (nucleic acid)
guide: B1 guide with G16T, G44T, C50A, C60T, T62G, A67C, G69A
modifications: listed as DNA, chemistry not fully specified
B3: cr550 (nucleic acid)
guide: B1 guide with G16T, C76A, G77A, C81T, G82T
modifications: listed as DNA, chemistry not fully specified
B4: cr725 (nucleic acid)
guide: B1 guide with G16T, G33A
modifications: listed as DNA, chemistry not fully specified
B5: cr645 (nucleic acid)
guide: B1 guide with G16T, G44C, C50G, T61G, A68C, C76G, G82C
modifications: listed as DNA, chemistry not fully specified
B6: cr836 (nucleic acid)
guide: B1 guide with G16T, C60T
modifications: listed as DNA, chemistry not fully specified
B7: cr505 (nucleic acid)
guide: B1 guide with G16T, A28T, A42G, G79T
modifications: listed as DNA, chemistry not fully specified
B8: cr859 (nucleic acid)
guide: B1 guide with G16T, G29C, A47T, A65G
modifications: listed as DNA, chemistry not fully specified
B9: cr742 (nucleic acid)
guide: B1 guide with G16T, C45A, G48T, T62C, A67G
modifications: listed as DNA, chemistry not fully specified
B10: cr723 (nucleic acid)
guide: B1 guide with G16T, T61C, A68G, C75G, G83C
modifications: listed as DNA, chemistry not fully specified
B11: cr508 (nucleic acid)
guide: B1 guide with G16T, T46C, T54G, T80C
modifications: listed as DNA, chemistry not fully specified
B12: cr684 (nucleic acid)
guide: B1 guide with G16T, C76T, G77A, C81T, G82A
modifications: listed as DNA, chemistry not fully specified
B13: cr890 (nucleic acid)
guide: B1 guide with G16T, A78C, T87C
modifications: listed as DNA, chemistry not fully specified
B14: cr449 (nucleic acid)
guide: B1 guide with G16T, G44C, C50G, C75G, G83C
modifications: listed as DNA, chemistry not fully specified
B15: cr168 (nucleic acid)
guide: B1 guide with G16T, G44A, C50T, C60A, G69T
modifications: listed as DNA, chemistry not fully specified
B16: cr852 (nucleic acid)
guide: B1 guide with G16T, C60G, T61A, T62A, G63A, A67T, G69C
modifications: listed as DNA, chemistry not fully specified
B17: cr867 (nucleic acid)
guide: B1 guide with G16T, C50T
modifications: listed as DNA, chemistry not fully specified
B18: cr341 (nucleic acid)
guide: B1 guide with G16T, G44T, C50A, G72C, C73T, G85A, C86G
modifications: listed as DNA, chemistry not fully specified
B19: cr555 (nucleic acid)
guide: B1 guide with G16T, G44T, C50A
modifications: listed as DNA, chemistry not fully specified
B20: cr695 (nucleic acid)
guide: B1 guide with G16T, T53A, A55G, A64T
modifications: listed as DNA, chemistry not fully specified
B21: cr568 (nucleic acid)
guide: B1 guide with G16T, A59T, T61G, A68C, T70A, C75A, G83T
modifications: listed as DNA, chemistry not fully specified
B22: cr635 (nucleic acid)
guide: B1 guide with G16T, A78G
modifications: listed as DNA, chemistry not fully specified
B23: cr278 (nucleic acid)
guide: B1 guide with G16T, T49C, G79A
modifications: listed as DNA, chemistry not fully specified
B24: cr887 (nucleic acid)
guide: B1 guide with G16T, A31C, A47C, G63C
modifications: listed as DNA, chemistry not fully specified
B25: cr763 (nucleic acid)
guide: B1 guide with G16T, T49C
modifications: listed as DNA, chemistry not fully specified
B26: cr380 (nucleic acid)
guide: B1 guide with G16T, A65G, C73T, G85A
modifications: listed as DNA, chemistry not fully specified
B27: cr522 (nucleic acid)
guide: B1 guide with G16T, A28T, A55G, T80C
modifications: listed as DNA, chemistry not fully specified
B28: cr594 (nucleic acid)
guide: B1 guide with G16T, A28T, A42G, T53C
modifications: listed as DNA, chemistry not fully specified
B29: cr474 (nucleic acid)
guide: B1 guide with G16T, G77T
modifications: listed as DNA, chemistry not fully specified
B30: cr439 (nucleic acid)
guide: B1 guide with G16A
modifications: listed as DNA, chemistry not fully specified
B31: cr558 (nucleic acid)
guide: B1 guide with G16T, A74T, C76G, G82C, T84A
modifications: listed as DNA, chemistry not fully specified
B32: cr779 (nucleic acid)
guide: B1 guide with G16T, C60A, G69T, C73T, C75A, G83T, G85A
modifications: listed as DNA, chemistry not fully specified
B33: cr819 (nucleic acid)
guide: B1 guide with G16T, A28C, A47G, T53G
modifications: listed as DNA, chemistry not fully specified
B34: cr426 (nucleic acid)
guide: B1 guide with G16T, G33A, T53C
modifications: listed as DNA, chemistry not fully specified
B35: cr457 (nucleic acid)
guide: B1 guide with G16T, G85T
modifications: listed as DNA, chemistry not fully specified
B36: cr117 (nucleic acid)
guide: B1 guide with G16T, A64G, A78G
modifications: listed as DNA, chemistry not fully specified
B37: cr015 (nucleic acid)
guide: B1 guide with A6C, G16T
modifications: listed as DNA, chemistry not fully specified
B38: cr875 (nucleic acid)
guide: B1 guide with G16T, A59C, T62G, A67C, T70G, G77C, C81G
modifications: listed as DNA, chemistry not fully specified
B39: cr712 (nucleic acid)
guide: B1 guide with G16T, G24C
modifications: listed as DNA, chemistry not fully specified

Residue numbers refer to the chain shown, from its start.

The data set relates to K562 CRISPRi cells. In words: Constant region variant library pooled growth screen, K562. Format: cell-based, human. The settings on record: sgRNA constant region variants; activity relative to the original, un-modified constant region cr995. In a few lines:
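Library of sgRNA constant-region variants, each paired with 36 targeting sequences (essential-gene and non-targeting), transduced in duplicate into K562 CRISPRi cells, puromycin-selected and grown 4–8 days at >2000× coverage. Activity per variant is its growth phenotype normalised to the same targeting sequence with unmodified constant region.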
In the case of B1, the Mean relative activity was determined as 0.7774. In turn, B2 returned a Mean relative activity of 0.7135. With B3, the Mean relative activity is 0.7679.

Regarding B4, the Mean relative activity was 0.7094.

The molecule B5 had a Mean relative activity of 0.7179. Molecule B6 showed a Mean relative activity of 0.7574.

B7: the Mean relative activity came to 0.7459. B8 had a Mean relative activity of 0.7625. Turning to B9, the Mean relative activity is on record as 0.7141. Then B10, with 1.054; and B11, with 0.7636. Then B12, with 0.7672; and B13, with 0.7513.

The molecule B14 had a Mean relative activity of 0.7698.

Turning to B15, the Mean relative activity is listed as 0.7238. With B16, the Mean relative activity came to 0.7542. B17 yielded a Mean relative activity of 0.7502. As to B18, the Mean relative activity turned out to be 0.7299.

The molecule B19 displayed a Mean relative activity of 0.719.

Molecule B20 gave a Mean relative activity of 0.751. Then B21, with 1.054; and B22, with 0.7174; and B23, with 0.7368. As for B24, the Mean relative activity came to 0.7504.

B25: the Mean relative activity is given as 0.7264. Then B26, with 1.055; and B27, with 0.7084; and B28, with 0.7395. For the molecule B29, the Mean relative activity came out at 0.7254. Then B30, with 0.7506; and B31, with 0.7679; and B32, with 0.7512.

B33 came in with a Mean relative activity of 0.7667.

B34: the Mean relative activity is reported as 0.7265. Then B35, with 0.7254. As to B36, the Mean relative activity is given as 0.6966.

B37 displayed a Mean relative activity of 0.7022.

B38: the Mean relative activity worked out at 0.743. Then B39, with 0.7744.
